Data published in patent US8058396B2, “Cystatin C as an antagonist of TGF-β and methods related thereto” (National Jewish Health, priority 2003, dated 2011).

B1: Δ14CystC: human CystC with deletion of positions 80 to 93 (conserved cysteine proteinase inhibitor motif), retrovirally expressed and secreted (protein)
chain: MAGPLRAPLLLLAILAVALAVSPAAGSSPGKPPRLVGGPMDASVEEEGVRRALDFAVGEYNKASNDMYHSRALQVVRARLGRTTCTKTQPNLDNCPFHDQPHLKRKAFCSFQIYAVPWQGTMTLSKSTCQDA
modifications: left off: small tags and cut ends
B2: CystC: full-length human Cystatin C (SEQ ID NO:2), C-terminally Myc- and (His)6-tagged, retrovirally expressed and secreted by the cells (protein, listed as Homo sapiens)
chain: MAGPLRAPLLLLAILAVALAVSPAAGSSPGKPPRLVGGPMDASVEEEGVRRALDFAVGEYNKASNDMYHSRALQVVRARKQIVAGVNYFLDVELGRTTCTKTQPNLDNCPFHDQPHLKRKAFCSFQIYAVPWQGTMTLSKSTCQDA
modifications: C-terminal Myc and His6 tags

Assays:
[1] = system: HT1080 fibrosarcoma cells; assay: HT1080 cell invasion through Matrigel matrices; type: cell-based, human; conditions: retroviral expression in HT1080 cells; 48 hr; relative to GFP-expressing cells; p<0.05
Experimental: The effect CystC and D14CystC on the invasion of HT1080 and 3T3-L1 cells was determined as described previously (42). Briefly, upper chambers were coated with 100 μl of diluted Matrigel (1:50 in serum-free media), which was allowed to evaporate to dryness overnight at room temperature. The following morning the Matrigel mixtures were rehydrated and subsequently cultured with control-, CystC-, or D14CystC-expressing HT1080 or 3T3-L1 cells at a density of 100,000 cells/chamber. Cellular invasion was stimulated by addition of 2% serum to the lower chambers. Forty-eight hr later, the cells were washed twice in ice-cold PBS and immediately fixed for 15 min with 95% ethanol. Cells remaining in the upper chambers were removed with a cotton swab, whereas those remaining in the lower chamber were stained with crystal violet. Quantifying invading cells was determined through two independent measures, which yielded identical results: (i) manual counting under a light microscope, and (ii) crystal violet dye extraction by incubation of the membranes in 10% acetic acid, followed by spectrophotometry at 590 nm.
Cathepsin B is a lysosomal cysteine proteinase that functions in intracellular protein catabolism, as well as in bone resorption, hormone activation, and antigen processing (5). During tumorigenesis, cancer cells express a cathepsin B splice variant whose protein product is secreted into the extracellular milieu (5) and localized to the leading edge of invasive tumors (19), thereby promoting cancer cell invasion and metastasis. However, recent evidence has questioned the role of intracellular versus extracellular cathepsin B in promoting cancer cell invasion (20). To distinguish between these two possibilities, human HT1080 fibrosarcoma cells that stably express the murine ecotropic receptor (21) were infected with control (i.e., GFP), CystC, or Δ14CystC retrovirus. Afterward, cells that expressed GFP were isolated by flow cytometry to establish stable polyclonal populations of control-, CystC-, and Δ14CystC-expressing HT1080 cells (data not shown). The inventor chose to study HT1080 cells because they are highly invasive, and because they express large quantities of secreted cathepsin B and comparably little CystC (22). Thus, if extracellular cathepsin B mediates HT1080 cell invasion, it was hypothesized that overexpression of secreted CystC would attenuate their invasion through synthetic basement membranes.
Briefly, GFP-, CystC-, or Δ14CystC-expressing HT0180 cells were allowed to invade through Matrigel-coated membranes for 48 hr. Data shown in FIG. 1A are the mean (±SE) of three (Δ14CystC) and nine (GFP and CystC) independent experiments presented as the percent invasion relative to GFP-expressing HT1080 cells (***, p<0.05; Student's T-Test).

NRK kidney fibroblasts [2] = assay: Soft agar assay, anchorage-independent growth of NRK cells; type: cell-based, rat; conditions: retroviral-mediated expression in NRK cells; TGF-β1 5 ng/ml; 7 d
Experimental: The growth of NRK cells in soft agar was performed according to the procedures described in (Moustakas et al., 1999). Briefly, duplicate cultures of control-, CystC-, or Δ14CystC-expressing NRK cells (10,000 cells/plate) were grown in 0.3% agar on a cushion of 0.6% agar in 35-mm plates. NRK cell growth in the absence or presence of TGF-β1 (5 ng/ml) was allowed to proceed for 7 d, whereupon the number of colonies formed was quantified under a light microscope.
(§1) This hypothesis was tested by infecting NRK cells with bicistronic retrovirus encoding either CystC or Δ14CystC to determine their effects on NRK anchorage-independent growth stimulated by TGF-β. Briefly, rat NRK kidney fibroblasts were infected with control (i.e., pMSCV-IRES-GFP), CystC, or Δ14CystC retroviral supernatants, and the resulting infected cells were isolated by GFP fluorescence on a MoFlo cell sorter 48 hours later. Control, CystC-, and Δ14CystC-expressing NRK cells were cultured in soft-agar in the absence or presence of TGF-β1 (5 ng/ml) for 7 d, whereupon NRK colony formation was quantified by light microscopy. In addition, control, CystC-, and Δ14CystC-expressing NRK cells were allowed to invade through Matrigel matrices in the absence or presence of TGF-β1 (5 ng/ml) for 48 hours.

NRK kidney fibroblasts [3] = assay: NRK cell invasion through Matrigel matrices; type: cell-based, rat; conditions: expression in NRK cells, 48 hours, p<0.05; for TGF-β-stimulated NRK cell invasion through synthetic basement membranes: TGF-β1 5 ng/ml
Experimental: as §1

| Molecule | HT1080 cell invasion through Matrigel matrices [1] | morphological transformation (soft agar colony formation) stimulated by TGF-β (NRK kidney fibroblasts [2]) | TGF-β-stimulated NRK cell invasion through synthetic basement membranes (NRK kidney fibroblasts [3]) | tonic NRK cell invasion (NRK kidney fibroblasts [3]) |
| --- | --- | --- | --- | --- |
| B1 | failed to affect | completely prevented | inhibited significantly |  |
| B2 | significantly inhibited | completely prevented | inhibited significantly | inhibited significantly |
